Key:
[1] = target: vascular endothelial growth factor (VEGF) dimer (UniProt P15692); test: split reporter
Flt-1 (Homo sapiens) = Flt-1 (Homo sapiens) (UniProt P17948); details: cited from earlier work
Flt-1 (Homo sapiens), sequence (P17948 27-1338): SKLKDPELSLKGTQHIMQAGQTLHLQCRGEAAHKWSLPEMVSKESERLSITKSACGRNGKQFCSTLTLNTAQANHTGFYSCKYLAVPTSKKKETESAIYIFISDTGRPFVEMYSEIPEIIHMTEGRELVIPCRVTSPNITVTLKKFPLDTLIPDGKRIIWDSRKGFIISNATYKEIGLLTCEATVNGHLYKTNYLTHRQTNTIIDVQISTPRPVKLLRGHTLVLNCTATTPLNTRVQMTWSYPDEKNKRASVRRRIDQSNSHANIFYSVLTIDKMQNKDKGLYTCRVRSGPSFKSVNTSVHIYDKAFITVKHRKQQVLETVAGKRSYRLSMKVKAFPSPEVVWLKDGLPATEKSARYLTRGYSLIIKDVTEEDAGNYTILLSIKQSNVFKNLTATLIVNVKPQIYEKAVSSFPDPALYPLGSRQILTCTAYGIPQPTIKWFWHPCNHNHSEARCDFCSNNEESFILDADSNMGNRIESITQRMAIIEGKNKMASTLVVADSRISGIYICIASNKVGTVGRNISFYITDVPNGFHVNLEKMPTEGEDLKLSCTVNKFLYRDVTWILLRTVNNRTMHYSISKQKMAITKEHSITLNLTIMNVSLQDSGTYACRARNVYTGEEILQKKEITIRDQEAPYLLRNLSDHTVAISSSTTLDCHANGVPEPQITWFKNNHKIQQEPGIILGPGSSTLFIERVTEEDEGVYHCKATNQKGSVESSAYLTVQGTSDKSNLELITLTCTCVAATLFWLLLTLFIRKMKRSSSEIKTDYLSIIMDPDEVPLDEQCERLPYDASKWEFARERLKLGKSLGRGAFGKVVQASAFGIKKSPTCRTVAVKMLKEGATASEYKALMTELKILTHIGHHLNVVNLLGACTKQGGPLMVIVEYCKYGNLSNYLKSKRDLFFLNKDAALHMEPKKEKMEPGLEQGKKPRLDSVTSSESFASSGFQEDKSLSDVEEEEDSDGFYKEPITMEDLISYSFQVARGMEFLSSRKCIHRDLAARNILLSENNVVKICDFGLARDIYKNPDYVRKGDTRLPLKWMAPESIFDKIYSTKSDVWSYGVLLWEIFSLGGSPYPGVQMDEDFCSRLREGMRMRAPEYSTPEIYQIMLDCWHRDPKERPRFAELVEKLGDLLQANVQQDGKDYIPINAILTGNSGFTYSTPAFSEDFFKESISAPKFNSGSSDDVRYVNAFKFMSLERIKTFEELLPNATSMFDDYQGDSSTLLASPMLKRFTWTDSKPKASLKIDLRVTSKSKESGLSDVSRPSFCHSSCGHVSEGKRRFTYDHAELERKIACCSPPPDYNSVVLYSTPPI

Flt-1 domain 2 fused to the N-terminal half of firefly luciferase (domain or fragment), sequence (P17948 27-1338): as above
Flt-1 domain 2 fused to the C-terminal half of firefly luciferase (domain or fragment), sequence (P17948 27-1338): as above
VEGF, sequence (P15692 whole entry): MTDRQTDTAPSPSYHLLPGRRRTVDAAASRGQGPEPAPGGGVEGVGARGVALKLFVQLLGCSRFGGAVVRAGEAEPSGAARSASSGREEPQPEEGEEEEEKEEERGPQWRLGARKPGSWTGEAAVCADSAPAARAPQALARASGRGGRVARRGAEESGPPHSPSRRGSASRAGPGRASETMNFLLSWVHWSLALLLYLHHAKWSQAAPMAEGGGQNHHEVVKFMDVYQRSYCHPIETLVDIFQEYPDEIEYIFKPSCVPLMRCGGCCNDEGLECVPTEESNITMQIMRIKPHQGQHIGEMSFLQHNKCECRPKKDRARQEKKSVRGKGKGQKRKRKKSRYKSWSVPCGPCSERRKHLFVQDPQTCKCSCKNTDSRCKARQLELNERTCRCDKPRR

Row | fold increase in luminescence [1] | Substance | Kd (Flt-1 (Homo sapiens))
1 | > 13 fold | Flt-1 domain 2 fused to the C-terminal half of firefly luciferase (domain or fragment) | –
2 | > 13 fold | Flt-1 domain 2 fused to the N-terminal half of firefly luciferase (domain or fragment) | –
3 | – | VEGF (from UniProt P15692) | 1.4 nM
